The series can be described thus: yeast display, Sf9 membrane polyspecificity reagent, FACS + sequencing; frameworks hold sequencing errors. The gist of the method:
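Sorting gates, low and high (top ~1%), were placed on anti-HA fluorescence to track expression and on streptavidin fluorescence to track reagent binding. A clone's polyreactivity label is taken from the gate it came out of. The reagent was 10% biotinylated, detergent-solubilized Sf9 membrane, applied for 1 hour at 4 °C to galactose-induced yeast display cells.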
For “QVQLVESGGGLVQAGGSLRLSCAASGITFVQYAMGWYRQAPGKERELVAAIRRGGSTSYADSVKGRFTISRDNAKNTVYLQMNSLKPEDTAVYYCARRYDWPITPLDVEYWGQGTQVTVSS”, the “polyreactivity (PSR sort gate)” value is recorded as “low polyreactivity”. Take “QVQLVESGGGLVQAGGSLRLSCAASGITFVRNAMGWYRQAPGKEREFVAAISWSGGSTYYADSVKGRFTISRDNAKNTVYLQMNSLKPEDTAVYYCAAAYPRVTYKYGYYWGQGTQVTVSS”: the “polyreactivity (PSR sort gate)” value is on record as “high polyreactivity”. With “QVQLVESGGGLVQAGGSLRLSCAASGITFVRYAMGWYRQAPGKERELVAVISRGGITNYADSVKGRFTISRDNAKNSVYLQMNSLKAEDTAVYYCAVRVRSNVRTYDYWGQGTQVTVSS” the entry was “high polyreactivity”; with “QVQLVESGGGLVQAGGSLRLSCAASGITFVRYTMGWYRQAPGKEWELVATITLSGGRTYYADSVQGRFTISRDNAKNTVSLQMTSLKPEDTAVYYCAASSRSRWSGYRYDYWGQGTQVTVSS”, “high polyreactivity”. With “QVQLVESGGGLVQAGGSLRLSCAASGITFVSNGMGWYRTAPGKERELVAAITRSGGSTYYADSVKGRFTISRDNAKNTVYLQMNSLKPEDTAVYYCNARTSRYRRGGDSWGQGTQVTVSS” the entry was “high polyreactivity”; with “QVQLVESGGGLVQAGGSLRLSCAASGITFVTYAMGWYRQAPGKERELVAAITIGGRTNYADSVKGRFTISRDNAKNTVYLQMNSLKPEDTAVYYCNAAPVYDVTRLFYDDMGYWGQGTQVTVSS”, “low polyreactivity”. With “QVQLVESGGGLVQAGGSLRLSCAASGITFVWNAMGWYRQAPGKERELVATISRGGVRTYYADSVKGRFTISRDNAKNTVYLQMNSLKPEDTAVYYCNKRYWYPSSLHWTSFRGYDYWGQGTQVTVSS” the entry was “low polyreactivity”; with “QVQLVESGGGLVQAGGSLRLSCAASGITFVWNAMGWYRQAPGKVREFVAGITYRSGRTYYADSVKGRFTISRDNAKNTVYLQMNSLKPEETAGYYCATTPRYTTYNYWGQGTQVTVSS”, “high polyreactivity”; with “QVQLVESGGGLVQAGGSLRLSCAASGITFVYNAMGWYRQAPGKERELVASITFGGGSTYYADSVKGRFTISRDNAKITVYLQMHSLKPEDTAVYYCAARLHVAFDYWGQGTQVTVSS”, “low polyreactivity”. Take “QVQLVESGGGLVQAGGSLRLSCAASGITFVYYAMGWYRPAPGKERELVAAISWNGGSTYYADSVKGRFTISRDNAKNTVYLQMNSLKPEDSAVYYCNADSDPWYGHFSYYYYDMGYWGQGTQVTVSS”: the “polyreactivity (PSR sort gate)” value is on record as “low polyreactivity”. With “QVQLVESGGGLVQAGGSLRLSCAASGITFWAYAMGWYRQAPGKERELVAAITSGGSTNYADSVKGRFTISRDNAKNTVYLQMNSLKPEDTAVYYCAKNYRYYVFYDGFDYWGQGTQVTVSS” the entry was “low polyreactivity”; with “QVQLVESGGGLVQAGGSLRLSCAASGITFWAYAMGWYRQAPGKERELVASISSGGSTYYADSVKGRFTISRDNAKNTVYLQMNSLKPEDTAVYYCAATTLRWYGDTFNYWGQGTQVTVSS”, “high polyreactivity”. As to “QVQLVESGGGLVQAGGSLRLSCAASGITFWGYVMGWYRQAPGKERELVAAISSSGGRTYYADSVKGRFTISRDNAKNTVYLQMNSLKPEDTAVYYCAAVAWQGTVQFGYWGQGTQVTVSS”, the “polyreactivity (PSR sort gate)” value was “high polyreactivity”.

Regarding “QVQLVESGGGLVQAGGSLRLSCAASGITFWKYAMGWYRQAPGKERELVAAISGRGGSTYYADSVKGRFTISRDNAKNTVYLQMNSLKPEDTAVFYCAKFPGISGYNYWGQGTQVTVSS”, the “polyreactivity (PSR sort gate)” value is on record as “high polyreactivity”. In the case of “QVQLVESGGGLVQAGGSLRLSCAASGITFWSNAMGWYRQAPGKERELVAAITSSGGSTYYADSVKGRFTISRDNAKNTVYLQMNSLKPEDTAVYYCAAPISRSAGWDSYDYWGQGTQVTVSS” it was “low polyreactivity”; in that of “QVQLVESGGGLVQAGGSLRLSCAASGITFWTYTMGWYRQAPGTERELVAAISKRGGSTYYADSVKGRFTISRDNAKNSVYLQMNSLKPEDTAVYYCAATYSYRFSSFDYWGQGTQVTVSS”, “high polyreactivity”; in that of “QVQLVESGGGLVQAGGSLRLSCAASGITFWVYVKGWYRQAPGKEREFVADISSGAGTTYYADSVKGRFTISRDNAKNTVYLQMNSLKPEDTAVYYFAARRWWPQWYDYWGQGTQVTVSS”, “high polyreactivity”. In the case of “QVQLVESGGGLVQAGGSLRLSCAASGITFWYYAMGWYRQAPGKERELVAAISWDGGSTYYADSVKGRFTISRDNAKNTVYLQMNSLKPEDTAVYYCAAEQYLYTWARHRANFDYWGQGTQVTVSS” it was “high polyreactivity”; in that of “QVQLVESGGGLVQAGGSLRLSCAASGITFWYYAMGWYRQAPRKERELVAAISWDGGSTYYADSVKGRFTISRDNAKNTVYVQMNSLKPEDTAVYYCNAVRYLERKYDYWGQGTQVTVSS”, “high polyreactivity”; in that of “QVQLVESGGGLVQAGGSLRLSCAASGITFYDNVMGWYIQAPGKERELVAAITSGGSTNYADSVKGRFTISRDNAKNTVYLQMNSLKPEDTAVYYCAAQPRVDYEFPYRYGYWGQGTQVTVSS”, “low polyreactivity”. Consider “QVQLVESGGGLVQAGGSLRLSCAASGITFYDNVMGWYRQAPGKERELVAAITSGGSTNYADSVKGRFTISRDNAKNTVYLQMNSLKPEDTAVYYCAAEGISVTAAQSEWYDYWGQGTQVTVSS”, for which the “polyreactivity (PSR sort gate)” value is recorded as “low polyreactivity”.

For the sequence “QVQLVESGGGLVQAGGSLRLSCAASGITFYDYAMGWYRQAPGKERELVAAISFSGSRTYYADSVKGRFTISRDNAKNTVYLQMNSLKPEDTAVYYCAASPSTPNKYGSWGQGTQVTVSS”, the “polyreactivity (PSR sort gate)” value was “high polyreactivity”. With “QVQLVESGGGLVQAGGSLRLSCAASGITFYEYAMGCYRQAPGKERELVATITSGGNTNYADSVKGRFTISRDNAKNTVYLQMNSLKPEDTAVYYCNKEWDGDGYTDDCDYDYWGQGTQVTVSS” the entry was “low polyreactivity”; with “QVQLVESGGGLVQAGGSLRLSCAASGITFYEYAMGWYRQAPGKERELVASISGSGGSTFYADSVKGRFTISRDNAKNTVYLQMNSLKPEDTAVYYCAAYKEPYYEEYGYWGQGTQVTVSS”, “low polyreactivity”. As for “QVQLVESGGGLVQAGGSLRLSCAASGITFYFNTMGWYRQAPGKERELVASIRNTGSTYADSVKGRFTISRDNAKNTVYLQMNSLKPEDTAVYYCAARRRKYYRGEYGYWGQGTQVTVSS”, the “polyreactivity (PSR sort gate)” value was “high polyreactivity”.

In the case of “QVQLVESGGGLVQAGGSLRLSCAASGITFYFNTMGWYRQAPGKVRELVASISGGSSTYYADSVKGRFTISRDNAKNTVYLQMNSLKPEDTAVYYCNAQGALFRGWFDYDYWGQGTQVTVSS”, the “polyreactivity (PSR sort gate)” value is listed as “low polyreactivity”.

As for “QVQLVESGGGLVQAGGSLRLSCAASGITFYGNAMGLYRQAPGKERELVANTYYADSVKGRFTISRDNAKNTVYLQMNSLKPEDTAVYYCANRNARYRSLPPGYDYWGLGTQVTVSS”, the “polyreactivity (PSR sort gate)” value is recorded as “low polyreactivity”.

For “QVQLVESGGGLVQAGGSLRLSCAASGITFYGNDMGGYRQAPGKERELVAAISYSGGSTYYADSVKGRFTISRDNAKNTVYLQMNSLKPEDNAGYYCAVEGTKLYEYYWGQVTQVTVSS”, the “polyreactivity (PSR sort gate)” value is given as “low polyreactivity”. With “QVQLVESGGGLVQAGGSLRLSCAASGITFYGYAMGWYRQAPGKERELVATISSGGSTNYADSVKGRFTISRDNAKNTVYLQMNSLKPEDTAVYYCNAAPDVNRDYEGSGDYWGQGSQVTVSS” the entry was “low polyreactivity”; with “QVQLVESGGGLVQAGGSLRLSCAASGITFYKNTMGWYRQAPGKERELVAAISSSGDNTFYADSVKGRFTISRDNAKNTVYLQMNSLKPEDTAVYYCATYRVINTIRGYYYTYDYWGQGTQVTVSS”, “high polyreactivity”.

The values above are taken from the nanobody polyreactivity screen of Harvey et al. (2022).
